The source of these data is patent publication US20230151104A1 (REMD BIOTHERAPEUTICS, published 2023).

Residue numbers refer to the chain shown, from its start. Several values for one entry are separate records, joined by “and”; a condition that tells them apart may be missing. Identical values can stand only once.

B1: humanized antibody VH4/VL2 (antibody, V domains shown)
VH: QVQLVQSGAEVKKPGASVKMSCKASGYAFTDFHLNWVRQSHGQGLEWIGVINPYNGGTNYNQKFKDRVTLTVDTSISTAYMELSRLRSDDTAVYYCARYYASRYGYAMDYWGQGTLVTVSS
VL: DIVMTQSPLSLPVTPGEPVSISCRSSKSLLHSNGNTYLYWFLQKPGQSPQLLIYRMSNLASGVPDRFSGSGSGTDFTLKISRVEAEDVGVYYCMQHVEYPLTFGGGTKLEIK
notes: Expressed as full-length IgG in Expi293F cells and tested as supernatant
B2: humanized antibody VH3/VL3 (antibody, V domains shown)
VH: B1 VH with M20V
VL: B1 VL with P8A
notes: as for B1
B3: humanized antibody VH5/VL2 (antibody, V domains shown)
VH: B1 VH with R38K
VL: B1 VL
notes: as for B1
B4: humanized antibody VH2/VL2 (antibody, V domains shown)
VH: B1 VH with M20V, H41P
VL: B1 VL
notes: as for B1
B5: humanized antibody VH2/VL3 (antibody, V domains shown)
VH: B1 VH with M20V, H41P
VL: B1 VL with P8A
notes: as for B1
B6: humanized antibody VH6/VL2 (antibody, V domains shown)
VH: B1 VH with R38K, V68A, T91S
VL: B1 VL
notes: as for B1
B7: humanized antibody VH5/VL1 (antibody, V domains shown)
VH: B1 VH with R38K
VL: B1 VL with V19A, F41Y
notes: as for B1
B8: humanized antibody VH3/VL1 (antibody, V domains shown)
VH: B1 VH with M20V
VL: B1 VL with V19A, F41Y
notes: as for B1
B9: humanized antibody VH5/VL3 (antibody, V domains shown)
VH: B1 VH with R38K
VL: B1 VL with P8A
notes: as for B1
B10: humanized antibody VH4/VL1 (antibody, V domains shown)
VH: B1 VH
VL: B1 VL with V19A, F41Y
notes: as for B1
B11: humanized antibody VH6/VL3 (antibody, V domains shown)
VH: B1 VH with R38K, V68A, T91S
VL: B1 VL with P8A
notes: as for B1
B12: humanized antibody VH6/VL1 (antibody, V domains shown)
VH: B1 VH with R38K, V68A, T91S
VL: B1 VL with V19A, F41Y
notes: as for B1
B13: humanized antibody VH2/VL1 (antibody, V domains shown)
VH: B1 VH with M20V, H41P
VL: B1 VL with V19A, F41Y
notes: as for B1
B14: humanized antibody VH3/VL2 (antibody, V domains shown)
VH: B1 VH with M20V
VL: B1 VL
notes: as for B1
B15: humanized antibody VH4/VL3 (antibody, V domains shown)
VH: B1 VH
VL: B1 VL with P8A
notes: as for B1
B16: murine-human chimeric IgG1 derived from mAb 201D10A12C1 (A15) (antibody, V domains shown)
VH: EVQLQQSGPVLVRPGASVKMSCKASGYAFTDFHLNWVKQSHGKSLEWIGVINPYNGGTNYNQKFKDKATLTVDKSSSTAYMELNRLTSEDSAVYYCARYYASRYGYAMDYWGQGTSVTVSS
VL: DIVMTQAAPSVPVTPGESVSISCRSSKSLLHSNGNTYLYWFLQRPGQSPQLLIYRMSNLASGVPDRFSGSGSGTAFTLRISRVEAEDVGIYYCMQHVEYPLTFGAGTKLELKR
notes: also called Chimeric (VH/VL); 4 Chimeric (VH/VL)
B17: humanized IgG 2 (VH1/VL2) (antibody)
heavy: not shown
light: DIVMTQSPLSLPVTPGEPVSISCRSSKSLLHSNGNTYLYWFLQKPGQSPQLLIYRMSNLASGVPDRFSGSGSGTDFTLKISRVEAEDVGVYYCMQHVEYPLTFGGGTKLEIKRTVAAPSVFIFPPSDEQLKSGTASVVCLLNNFYPREAKVQWKVDNALQSGNSQESVTEQDSKDSTYSLSSTLTLSKADYEKHKVYACEVTHQGLSSPVTKSFNRGEC
notes: Full-length humanized IgG; also called H1/L2
B18: humanized IgG 3 (VH1/VL3) (antibody)
heavy: not shown
light: B17 light with P8A
notes: Full-length humanized IgG; also called H1/L3
B19: humanized IgG 1 (VH1/VL1) (antibody, V domains shown)
VH: B1 VH with M20V, S40A, H41P, I48M, L70M, V72R
VL: DIVMTQSPLSLPVTPGEPASISCRSSKSLLHSNGNTYLYWYLQKPGQSPQLLIYRMSNLASGVPDRFSGSGSGTDFTLKISRVEAEDVGVYYCMQHVEYPLTFGGGTKLEIKR
notes: Full-length humanized IgG; also called H1/L1
B20: murine mAb 201D10A12C1 ("A15") (antibody, V domains shown)
VH: B16 VH
VL: DIVMTQAAPSVPVTPGESVSISCRSSKSLLHSNGNTYLYWFLQRPGQSPQLLIYRMSNLASGVPDRFSGSGSGTAFTLRISRVEAEDVGIYYCMQHVEYPLTFGAGTKLELK
B21: murine mAb 201D10E9F2 ("A17") (antibody, V domains shown)
VH: B16 VH
VL: B20 VL
B22: murine mAb 132F3F3H11 ("A8") (antibody, V domains shown)
VH: DVQLVESGGGLVQPGGSRKLSCAASGFTFSSSGMHWVRQAPEKGLEWVAYISSGSSSIYYADTVKGRFTISRDNPKNTLFLQMTSLRSEDTAMYYCARPYYYGSIAMDYWGQGTSVTVSS
VL: DIKMTQSPSSMYASLGERVTITCKASQDINSYLSWFQQKPGKSPKTLIYRANRLVDGVPSRFSGSGSGQDYSLTISSLEYEDMGIYYCLQYDEFPFTFGSGTKLEIK

tagged CXCR4 receptors stably expressed on recombinant CHO cells, sequence (P61072 other isoform, or with tags, fused parts or gaps): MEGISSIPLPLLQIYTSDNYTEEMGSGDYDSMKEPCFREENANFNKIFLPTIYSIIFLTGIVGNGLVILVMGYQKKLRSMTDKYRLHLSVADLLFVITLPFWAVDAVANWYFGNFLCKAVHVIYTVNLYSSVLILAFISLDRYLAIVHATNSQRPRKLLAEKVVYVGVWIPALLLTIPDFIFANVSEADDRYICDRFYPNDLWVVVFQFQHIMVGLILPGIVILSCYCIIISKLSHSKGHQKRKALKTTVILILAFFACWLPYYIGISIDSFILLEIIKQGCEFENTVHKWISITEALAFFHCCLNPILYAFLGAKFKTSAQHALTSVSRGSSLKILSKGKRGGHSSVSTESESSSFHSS

For one experiment, the target named is T1, human CXCR4 (hCXCR4), on CXCR4-positive cell line "CXCR4 E4" (human, UniProt P61073-2 2-356).
T1 construct: FACS target: 'Positive cells lines (CXCR4 E4)'; also called chemokine receptor 4; HuCXCR4
T1 sequence (P61073 other isoform, or with tags, fused parts or gaps): as the sequence (P61072 other isoform, or with tags, fused parts or gaps) above
Kind of experiment: FACS on CXCR4 E4 cells; serial dilution of Expi293F supernatant; anti-human IgG Alexa Fluor 647. As to the method: The DNA sequences encoding the chimeric antibody and humanized IgG heavy and light chains were synthesized and inserted into pCDNA3.4 vector to construct the expression plasmids of full-length IgGs. 18 humanized Abs were expressed in Expi293F cell culture, and then the cells were spun down. For affinity ranking, the supernatants were assayed by FACS against cell lines for the assessment of binding activity. Positive cells lines (CXCR4 E4) were cultured following the protocol and harvested by centrifugation. About 1×10⁵cells per well were washed with 1*PBS and incubated in a serial dilution of antibodies for 30 minutes at 4° C. After washing with PBS, secondary antibody [1 μg/ml Alexa Fluor® 647 AffiniPure Goat Anti-Human IgG (H+L)] was added to the cells and incubated in PBS for 30 minutes at 4° C. After washing with PBS, cells were analyzed for binding by using FACS Calibur (BD Bioscience, San Jose, Calif.) and Flowjo software. The antibodies were ranked by EC50.
One may read the EC50 as the concentration needed to bring the measured effect to its halfway point. Read a high EC50 as lower potency in that assay. Regarding B1, the EC50 was 1.99 µg/mL and 13.2 nM. On to B2, for which the EC50 is 2.82 µg/mL and 18.8 nM.

Consider B3, for which the EC50 is 1.61 µg/mL and 10.7 nM. As for B4, the EC50 is 4.82 µg/mL and 32.1 nM.

For the molecule B5, the EC50 is 8.35 µg/mL and 55.7 nM. Regarding B6, the EC50 was 1.94 µg/mL and 13 nM. For the molecule B7, the EC50 is 0.375 µg/mL and 2.5 nM. In the case of B8, the EC50 is 4.18 µg/mL and 27.9 nM. The same measure, in the same setting: next, B9: 1.93 µg/mL and 12.8 nM. In the case of B10, the half-maximal effective concentration (EC50) is 2.39 µg/mL and 16 nM. Turning to B11, the EC50 was 2.86 µg/mL and 19.1 nM.

As for B12, the EC50 was 1.45 µg/mL and 9.65 nM. For B13, the EC50 is 5.37 µg/mL and 35.8 nM. For B14, the EC50 was 2.93 µg/mL and 19.5 nM. For the molecule B15, the EC50 was 1.97 µg/mL and 13.2 nM. B16: the EC50 is 1.56 µg/mL and 10.4 nM.

On to B17, for which the EC50 is 2.19 µg/mL and 14.6 nM. On to B18, for which the EC50 is 2.27 µg/mL and 15.2 nM. For the molecule B19, the EC50 was 1.72 µg/mL and 11.5 nM.

A further experiment concerns the target tagged CXCR4 receptors stably expressed on recombinant CHO cells (human, UniProt P61072 1-352 (Pan troglodytes entry)). Put plainly: cell-based or functional assay.
As for B20, the “HuCXCR4 Binding IC50 (nM) (CXCR4 cAMP functional assay, antagonist mode against 5.0 nM SDF-1)” value (from here on “HuCXCR4 Binding IC50 (nM)”) stood at 1.18 nM.

For B21, the “HuCXCR4 Binding IC50 (nM)” value amounted to 1.48 nM. B22: the “HuCXCR4 Binding IC50 (nM)” value came to 0.381 nM.

The next experiment deals with T1, human CXCR4 (hCXCR4), on CXCR4-positive …. Put plainly: FACS binding confirmation with purified IgG on CXCR4-expressing cells. In general terms: Flow cytometry measures light scatter and fluorescence of single cells or particles in a stream.
The molecule B16 registered an EC50 of 1.8 mg/L. Same read-out and setting: to B17 belongs 1.72 mg/L.

Molecule B18 registered an EC50 of 2.35 mg/L. B19 had an EC50 of 1.6 mg/L.
